Among the data in PMC11883961 are stoichiometry N values, retold here.

In the assay the target is T1, MAPRE1 (native MS), Q15691.
T1 chain: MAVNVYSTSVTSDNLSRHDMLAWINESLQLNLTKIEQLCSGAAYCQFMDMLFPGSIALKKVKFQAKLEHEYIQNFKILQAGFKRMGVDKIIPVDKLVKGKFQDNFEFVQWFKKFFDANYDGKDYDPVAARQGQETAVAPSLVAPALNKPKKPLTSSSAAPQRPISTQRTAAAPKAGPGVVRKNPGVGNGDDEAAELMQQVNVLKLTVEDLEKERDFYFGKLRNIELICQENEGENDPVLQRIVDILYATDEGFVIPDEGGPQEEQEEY
The experiment in a line: native MS. As to conditions: remark: other sources report otherwise.

B1: MAPRE1 (native MS), Q15691 1-268 (natural protein)
chain: MAVNVYSTSVTSDNLSRHDMLAWINESLQLNLTKIEQLCSGAAYCQFMDMLFPGSIALKKVKFQAKLEHEYIQNFKILQAGFKRMGVDKIIPVDKLVKGKFQDNFEFVQWFKKFFDANYDGKDYDPVAARQGQETAVAPSLVAPALNKPKKPLTSSSAAPQRPISTQRTAAAPKAGPGVVRKNPGVGNGDDEAAELMQQVNVLKLTVEDLEKERDFYFGKLRNIELICQENEGENDPVLQRIVDILYATDEGFVIPDEGGPQEEQEEY
Usually stoichiometry N stands for a count of units in the complex or per binding partner. B1: the stoichiometry N was found to be 2.
